Values of other authors in paper PMC4986992.

Biological target: Glycophorin A (GpATM) TM (Homo sapiens) (UniProt P02724)

For “Glycophorin A (GpATM) TM (from UniProt P02724)”, the Kd is listed as 1.2 pM.
